Test [1] addresses human FcγRIIa-H variant (Histidine at amino acid 131), on Jurkat effector cells (human) (UniProt P12318). The experiment in a line: cell-based or functional assay.
In test [2] the target is FcγRIIIa, on Jurkat effector cells (UniProt P08637). Nature of the test: cell-based or functional assay.

Data on two substances can be found in patent US20210238310A1.

Chain of FcγRIIIa, on Jurkat effector cells (P08637 17-254 limits assumed): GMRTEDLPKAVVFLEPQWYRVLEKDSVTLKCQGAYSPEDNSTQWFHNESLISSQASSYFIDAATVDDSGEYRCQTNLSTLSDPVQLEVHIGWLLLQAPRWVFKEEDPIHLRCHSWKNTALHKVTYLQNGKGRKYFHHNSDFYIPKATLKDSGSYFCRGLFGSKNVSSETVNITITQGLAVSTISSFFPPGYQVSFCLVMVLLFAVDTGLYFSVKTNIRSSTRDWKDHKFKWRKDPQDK
Chain of human FcγRIIa-H variant (Histidine at amino acid 131), on Jurkat effector cells (human) (P12318 34-317, change not shown): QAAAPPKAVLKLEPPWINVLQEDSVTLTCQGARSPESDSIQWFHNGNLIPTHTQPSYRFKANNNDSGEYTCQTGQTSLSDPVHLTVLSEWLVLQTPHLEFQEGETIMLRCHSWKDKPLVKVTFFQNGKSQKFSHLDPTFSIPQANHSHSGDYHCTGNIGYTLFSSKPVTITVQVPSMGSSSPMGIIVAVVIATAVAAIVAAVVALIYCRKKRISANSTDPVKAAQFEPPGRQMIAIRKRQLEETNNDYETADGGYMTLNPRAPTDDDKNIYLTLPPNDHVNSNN

Turning to “obinutuzumab monoclonal antibody, fucosylated”, in test [1], the EC50 (nM), Mean; FcγRIIa signaling in an ADCP reporter assay (luciferase, Raji target cells) came out at 7.1 nM. The EC50 (nM), Mean; FcγRIIIa signaling in an ADCC reporter assay (luciferase, Raji target cells) in test [2] was 0.08 nM.
On to “avelumab monoclonal antibody, fucosylated”, for which, in test [2], the EC50 (nM), Mean; FcγRIIIa signaling in an ADCC reporter assay (luciferase, HEK-PD-L1 target cells) was 0.049 nM.
